From the DeepSol protein solubility set

Assay: soluble on expression in E. coli; label from the status in PepcDB or PDB records

Row | Sequence | soluble on expression in E. coli
1 | MNRHPALSLDLDDGIDRKVLGQLRQRFLAVNAGRLQRARQALSSRQERVLRLLPLLFHINHPLLPGYLSASTPAGLSGFEADDEVLAEAQRLARSFVYKPRRQEPAQQPIHGLFLMGSLGSLAQEEQSDLDLWVCHAPELEPGARQELRRKCALIEDWARSQGSEVHCFLIDVARFGQDEREDRKEPGGDGNTQHFLLLDEFYRSAIWLGGRTPLWWLVPPAHERRYDEYCRTLLGKRFIRAEEVLDLGHLAHIPAREFIGAGLWQLSKAIDSPYKSLLKLLLTEAYASEHPRVRCVALRFKEQVFAGQLDLDELDPYVLVYRHLERYLREQQAPERLELVRRCLYLKVGRKLGGRQRQAQKGWQHLSMERLVAEWQWEPRRLALLDSRSQWKMRQVMEERRTVVNELTYSYRLLFQIARQQGADSGIDSRDLGLLGRRLYAAFERKAGKVENINPGIAPDLGEDVLTLVQLPADDGREQAQWAIFPGALGAHQWPDYAPLKRSLRLVELLAWCHRNGVIDSATRLSLHPGQSDLGDAELDNLLGSLRQFLPVPLATVDDADLLQPRRLKSVLLLVNVGVDPLRHHSQMNLHMATGRTDVLGYAGVRDNLVLTLDQLSLNSWNELTVRHYAGPQALPECLAEFLDAVREKPGSPPQPPELMVRCFCRNRAAAIAVRVEELFRETYGQLLGGQPSRYLLQIRQQYHLLEMSPEAVSHESLPDLPSLLQHLGRERDGYSALKLDRHALEGEDLGLILSMGRPDCIQVFYRRDFDSAEISLLDERNALWRQRQALRDERSLLAPLQRFLQSLLYRRNALSLAEQVPAALDIRYYELLSNDGRVHVEPREAPEALAGPALYELQALLERGERKRVQVTLYCDHQEFSELEYGAGLFKAVARHILAHRAESEPYPCYLTDLDLSRLFADEQPQTLHYLRYKSVLETALNQALLE | not soluble
2 | MSLSKFVLGGLWPETGSLAYLAPPELAAEKLAVKDINDAGGVLGNKITTVDADTSDADHADQNTSAAQSVLSKNPSFIIGPASSSVVKNTYKSITSQNIPMLSMGATSASFSGLSDYFFRTVAPDTVQGAVMGNLIAQDGVQKLAIAVFNDEYGTGLRDTIVKTASAAGVDIIYGEKDTFDPTETNFSSIATAIKASNPDATLVIAFDQTKPLLKALASAGVNTKKLYFVDGNTSDYSSELDAGLLEGSKGTIPGINPSDDFVKRLESTGVDLKNTTTYGAETYDGIILAALAAQKGGSADGKTIQANMAAVSGSTKGEKCDSYKACVALLKDGKEIQYKGQTSIGAFNDAHDPSSASIGVYKYDADNKPVFDHSQEGSVPKAEGHHHHHH | soluble
3 | MGHHHHHHSHPQDNDFLSRKAQDCYFMKLHHCPGNHSWDSTISGSQRAAFCDHKTTPCSSAIINPLSTAGNSERLQPGIAQQWIQSKREDIVNQMTEACLNQSLDALLSRDLIMKEDYELVSTKPTRTSKVRQLLDTTDIQGEEFAKVIVQKLKDNKQMGLQPYPEILVVSRSPSLNLLQNKSM | not soluble
4 | MAHHHHHHMQNLSPACTFNKNEEKIKCPSSTKLGCSDGTKIIQHEINERNMMPEIPNVSLTDENDFTFNKKRHVSSIPKNNNEYWVYPSSQQFYNSLIRKNKDIDKNYIDAVVSVHNEVNEESWKQILKYEHMHKRSCTDVTLHRFLGKFDDLSIKARFRSIFSRGKKKKNNNNNKKSVKGFFFMGRPFDRHDWYVNRCGTQVKYILDYYNDESINDDKNIYIDVRPAMNSFSNVWDRLRYPFYEFYFKYVKKDELFK | not soluble
5 | MGSDKIHHHHHHMTIAIIIATHGVAAEQLLKTTEMLIGEQENVATIDFVPGENAETIMEKYQAKLSGDLAHCDKVLFLVDTWGGSPFNAANRVSEGKDNMDIVTGVNVPMLVETFMARDDGPSLDELVAIALETGRTGVRALRYQEPETEPTAPTSEVPAQPAASQAEPQPAMVTPNQEGHLEIGLARIDDRLIHGQVATRWTKESRVSRIVVVSDEVAKDTVRATMLKSVAPPGVTAHVVNVDKMVRVYNNPEYAGERMMLLFTNPTDVLRLSDAGVDFKSINVGGMAYRDGKKMITNAVSVDDKDIAAFKALDAKGIELDVRKVSNDNRQYMMDLLKKNNLL | not soluble
6 | MPEVSFIICTRNRVAVLEACLKSVQAACRAHAGFAAELVVVDNGSSDRTAERLASIAAMSDIPFTPVSEPRRGLAAARNAGLRRARGRVLVFVDDDCAVHCDYLRDLERHYASGEQGLIRGGRVELGDPRDLPFTIKRSRVCERLTPDIHPGGFVLGCNMTMHRDVAARIGDFDERFGAGGPLRSAEDTDYLVRAVLLGIPVEYVPDMTIFHHHGRRDRKAIEKLHRDYSLGNGGLCLKHIRHAPWLLRHFYWAARGALRELAGGPAFDRDLDLSHRPIVGMNVLGAARYALLLLARRPQAEPARQDQQANAEAPLLEHHHHHH | not soluble
7 | MSLKKEYLQCQSLVDVVRLRALHSPNKKSCTFLNKELEETMTYEQLDQHAKAIAATLQAEGAKPGDRVLLLFAPGLPLIQAFLGCLYAGCIAVPIYPPAQEKLLDKAQRIVTNSKPVIVLMIADHIKKFTADELNTNPKFLKIPAIALESIELNRSSSWQPTSIKSNDIAFLQYTSGSTMHPKGVMVSHHNLLDNLNKIFTSFHMNDETIIFSWLPPHHDMGLIGCILTPIYGGIQAIMMSPFSFLQNPLSWLKHITKYKATISGSPNFAYDYCVKRIREEKKEGLDLSSWVTAFNGAEPVREETMEHFYQAFKEFGFRKEAFYPCYGLAEATLLVTGGTPGSSYKTLTLAKEQFQDHRVHFADDNSPGSYKLVSSGNPIQEVKIIDPDTLIPCDFDQVGEIWVQSNSVAKGYWNQPEETRHAFAGKIKDDERSAIYLRTGDLGFLHENELYVTGRIKDLIIIYGKNHYPQDIEFSLMHSPLHHVLGKCAAFVIQEEHEYKLTVMCEVKNRFMDDVAQDNLFNEIFELVYENHQLEVHTIVLIPLKAMPHTTSGKIRRNFCRKHLLDKTLPIVATWQLNKIEEGHHHHHH | soluble
8 | MGSDKIHHHHHHLFAIRDEHLALDIVQDSMMKLVEKYSAKPLEELPLLFQRILQNTIRDFYRRQKTRSLWTTLFSAFIPSDHEKESEDFDLLETLQSDPSSSKVNDPHQQLEQSQLINLLERAIETLPARQREAFLLRYWEEMDVMETAKIMGCSEGSVKTHCSRATHTLAAMLKKHGIGL | not soluble
9 | KAIYNRNLGYSDGAGAVLALKKKGHQNACKIAGCELWLKIIERYSREKSFYLVGGKPEVIEETIQKLRKDFPRINIVGYRDGYLKGNDDEVLIEDIAAKKPDVVFVAMGSPKQELLMERMQRVHPNAIYQGLGGSFDVYTGRVERAPEWWIRHNLEFAYRLIKQPSRIKRQIHLVRFLFRVLTNRI | not soluble
10 | MLFDTHAHLNAEQYDTDLEEVIERAKAEKVERIVVVGFDRPTITRAMEMIEEYDFIYAAIGWHPVDAIDMTEEDLAWIKELSAHEKVVAIGEMGLDYHWDKSPKDIQKEVFRNQIALAKEVNLPIIIHNRDATEDVVTILKEEGAEAVGGIMHCFTGSAEVARECMKMNFYLSFGGPVTFKNAKKPKEVVKEIPNDRLLIETDCPFLTPHPFRGKRNEPSYVKYVAEQIAELKEMTFEEIASITTENAKRLFRINLEHHHHHH | not soluble
11 | MGSDKIHHHHHHMSTNLRRIQKIKGGSYIVSLPSDWVRENGLDVSREVEVFESSGIIKIRPKKDFNFERIIDFTDEETAEYLTSVYYMQGMTKITIQSKDVISRDVKDKIKMLQLELPGLNLKEESFNSITFEVDEEILKVQDSFFDFSNKALSILKDVTKIIETPREDMKQDLTSRCLALNSDYFKLIRSIALTVQRDDKYKLDVPVKDIILYAVASRDLGRFITHTRLLIGNIKQEDMKMRDQVLLLINTMENIITMFKTEDINMASRIRKNAHEILESVKSTSEANKELERMTGYALALMDDAVHKAVHL | not soluble
12 | MCMTRQPAVAGQFYTDEPKRLRGDLQRMIPAETMKQRVKGIVAPHAGYVYSGHVAGAVYGAIEIPSTVVILGPNHHGFGAAAALYPEGEWLTPLGSVPIDVRLSQLVQKHVPLVEPEMSAHRFEHSLEVQVPFLQYRADVSIVPICLGFGDYERCRLLGEGIARAIREFGEDVLIVASSDMTHYESADAARAKDEQAIAEVLALNPEGLVQICRRKNITMCGVIPATVMLVTAKALGASKAELISYATSGDVTGDNRQVVAYAAMAVYLEHHHHHH | not soluble
13 | MKVAAKKLATSRMRKDRAAAASPSSDIENSENPSSLASHSSSSGRMTPSKNTRSRKGVSVKDVSNHKITEFFQVRRSNRKTSKQISDEAKHALRDTVLKGTNERLLEVYKDVVKGRGIRTKVNFEKGDFVVEYRGVMMEYSEAKVIEEQYSNDEEIGSYMYFFEHNNKKWCIDATKESPWKGRLINHSVLRPNLKTKVVEIDGSHHLILVARRQIAQGEELLYDYGDRSAETIAKNPWLVNT | not soluble
